Laboratory results as given in paper PMC6606808.

Target: Acinetobacter baumannii AdeB multidrug efflux pump (Acinetobacter baumannii AB0057)
Test: cryo-EM structure; single-particle cryo-EM of purified AdeB reconstituted in lipidic nanodiscs (MSP 1E3D1, E. coli total extract lipid); 20 mM Tris-HCl pH 7.5, 100 mM NaCl; no substrate; C3 symmetry; 2.98 Å

## Acinetobacter baumannii AdeB multidrug efflux pump (natural protein)
  stoichiometry N: 3
